Laboratory results taken from publication PMC9482650, “Quantitative fragmentomics allow affinity mapping of interactomes” (Nature Communications, 2022).

Molecular target: AHNAK1, Q09666
Experiment: holdup assay
Parameters: key: below the threshold = too weak to quantify, mostly under pKd 3.1 to 4
Details: plain residues with an end cap or a label only (N-terminal biotin on a linker: ado-ado)

Chain of AHNAK1, Q09666 (Q09666 4-100): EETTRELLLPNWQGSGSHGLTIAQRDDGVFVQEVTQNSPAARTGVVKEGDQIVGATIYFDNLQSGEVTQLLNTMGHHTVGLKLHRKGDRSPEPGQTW

Binder | pKd
GQSVDLVFPV [AKIP1, Q9NQ31] | below the threshold
DQPLEKSTKL [AKAP10, O43572] | below the threshold

Molecular target: T1, APBA1_1, Q02410
T1 sequence (Q02410 651-752, limits assumed, looked up): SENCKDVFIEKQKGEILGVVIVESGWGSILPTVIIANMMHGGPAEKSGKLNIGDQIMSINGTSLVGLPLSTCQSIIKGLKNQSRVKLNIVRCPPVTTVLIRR
Experiment: holdup assay
Parameters: key: below the threshold = too weak to quantify, mostly under pKd 3.1 to 4
Details: plain residues with an end cap or a label only (N-terminal biotin on a linker: ado-ado)

Binder | pKd
GQSVDLVFPV [AKIP1, Q9NQ31] | below the threshold
DQPLEKSTKL [AKAP10, O43572] | below the threshold

Molecular target: T2, APBA2_1, Q99767
T2 sequence (Q99767 563-664, limits assumed, looked up): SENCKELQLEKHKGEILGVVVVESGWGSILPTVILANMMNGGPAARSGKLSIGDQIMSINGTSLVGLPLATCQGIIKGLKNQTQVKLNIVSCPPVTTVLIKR
Experiment: holdup assay
Parameters: key: below the threshold = too weak to quantify, mostly under pKd 3.1 to 4
Details: plain residues with an end cap or a label only (N-terminal biotin on a linker: ado-ado)

Binder | pKd
GQSVDLVFPV [AKIP1, Q9NQ31] | 3.59
DQPLEKSTKL [AKAP10, O43572] | below the threshold

Molecular target: T3, APBA3_1, O96018
T3 sequence (O96018 389-490, limits assumed, looked up): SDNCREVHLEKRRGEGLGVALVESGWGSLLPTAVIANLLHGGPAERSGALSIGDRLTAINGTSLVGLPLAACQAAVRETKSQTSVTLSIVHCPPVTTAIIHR
Experiment: holdup assay
Parameters: key: below the threshold = too weak to quantify, mostly under pKd 3.1 to 4
Details: plain residues with an end cap or a label only (N-terminal biotin on a linker: ado-ado)

Binder | pKd
GQSVDLVFPV [AKIP1, Q9NQ31] | below the threshold
DQPLEKSTKL [AKAP10, O43572] | below the threshold

Molecular target: DLG1_3, Q12959
Sequence (Q12959 457-571): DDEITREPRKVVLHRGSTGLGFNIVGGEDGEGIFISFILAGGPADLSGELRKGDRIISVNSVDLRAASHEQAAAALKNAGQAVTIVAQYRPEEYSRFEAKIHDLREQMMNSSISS
Experiment: holdup assay
Parameters: key: below the threshold = too weak to quantify, mostly under pKd 3.1 to 4
Details: plain residues with an end cap or a label only (N-terminal biotin on a linker: ado-ado)

Binder | pKd
GQSVDLVFPV [AKIP1, Q9NQ31] | below the threshold
DQPLEKSTKL [AKAP10, O43572] | below the threshold

Molecular target: DLG2_3, Q15700
Experiment: holdup assay
Parameters: key: below the threshold = too weak to quantify, mostly under pKd 3.1 to 4
Details: plain residues with an end cap or a label only (N-terminal biotin on a linker: ado-ado)

Binder | pKd
GQSVDLVFPV [AKIP1, Q9NQ31] | below the threshold
DQPLEKSTKL [AKAP10, O43572] | 3.83

Molecular target: GOPC, Q9HD26
Experiment: holdup assay
Parameters: key: below the threshold = too weak to quantify, mostly under pKd 3.1 to 4
Details: plain residues with an end cap or a label only (N-terminal biotin on a linker: ado-ado)

Binder | pKd
GQSVDLVFPV [AKIP1, Q9NQ31] | below the threshold
DQPLEKSTKL [AKAP10, O43572] | 3.86

Molecular target: GORASP1, Q9BQQ3
Sequence (Q9BQQ3 1-208): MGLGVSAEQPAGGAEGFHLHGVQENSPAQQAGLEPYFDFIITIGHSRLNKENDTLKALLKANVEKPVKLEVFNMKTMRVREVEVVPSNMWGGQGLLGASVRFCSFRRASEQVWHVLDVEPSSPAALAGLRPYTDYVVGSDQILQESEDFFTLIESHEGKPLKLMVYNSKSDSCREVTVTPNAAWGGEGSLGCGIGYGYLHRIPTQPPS
Experiment: holdup assay
Parameters: key: below the threshold = too weak to quantify, mostly under pKd 3.1 to 4
Details: plain residues with an end cap or a label only (N-terminal biotin on a linker: ado-ado)

Binder | pKd
GQSVDLVFPV [AKIP1, Q9NQ31] | 3.92
DQPLEKSTKL [AKAP10, O43572] | below the threshold

Molecular target: GRID2IP_2, A4D2P6
Sequence (A4D2P6 272-370): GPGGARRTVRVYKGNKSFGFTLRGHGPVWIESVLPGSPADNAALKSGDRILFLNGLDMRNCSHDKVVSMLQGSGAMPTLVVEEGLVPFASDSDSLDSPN
Experiment: holdup assay
Parameters: key: below the threshold = too weak to quantify, mostly under pKd 3.1 to 4
Details: plain residues with an end cap or a label only (N-terminal biotin on a linker: ado-ado)

Binder | pKd
GQSVDLVFPV [AKIP1, Q9NQ31] | below the threshold
DQPLEKSTKL [AKAP10, O43572] | 4.75

Molecular target: T4, GRIP1_2, Q9Y3R0
T4 sequence (Q9Y3R0 145-248, limits assumed, looked up): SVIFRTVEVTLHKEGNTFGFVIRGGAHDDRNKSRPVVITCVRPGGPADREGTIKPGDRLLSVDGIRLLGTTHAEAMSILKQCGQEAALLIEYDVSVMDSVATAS
Experiment: holdup assay
Parameters: key: below the threshold = too weak to quantify, mostly under pKd 3.1 to 4
Details: plain residues with an end cap or a label only (N-terminal biotin on a linker: ado-ado)

Binder | pKd
GQSVDLVFPV [AKIP1, Q9NQ31] | below the threshold
DQPLEKSTKL [AKAP10, O43572] | below the threshold

Molecular target: T5, GRIP1_5, Q9Y3R0
T5 sequence (Q9Y3R0 568-668, limits assumed, looked up): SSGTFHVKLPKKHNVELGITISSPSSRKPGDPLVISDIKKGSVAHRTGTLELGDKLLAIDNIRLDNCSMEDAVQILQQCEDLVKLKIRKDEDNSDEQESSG
Experiment: holdup assay
Parameters: key: below the threshold = too weak to quantify, mostly under pKd 3.1 to 4
Details: plain residues with an end cap or a label only (N-terminal biotin on a linker: ado-ado)

Binder | pKd
GQSVDLVFPV [AKIP1, Q9NQ31] | below the threshold
DQPLEKSTKL [AKAP10, O43572] | below the threshold

Molecular target: GRIP2_6, Q9C0E4
Sequence (Q9C0E4 648-740): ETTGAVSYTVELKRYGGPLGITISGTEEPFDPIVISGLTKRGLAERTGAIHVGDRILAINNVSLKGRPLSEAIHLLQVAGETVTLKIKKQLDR
Experiment: holdup assay
Parameters: key: below the threshold = too weak to quantify, mostly under pKd 3.1 to 4
Details: plain residues with an end cap or a label only (N-terminal biotin on a linker: ado-ado)

Binder | pKd
GQSVDLVFPV [AKIP1, Q9NQ31] | below the threshold
DQPLEKSTKL [AKAP10, O43572] | below the threshold

Molecular target: GRIP2_7, Q9C0E4
Sequence (Q9C0E4 934-1023): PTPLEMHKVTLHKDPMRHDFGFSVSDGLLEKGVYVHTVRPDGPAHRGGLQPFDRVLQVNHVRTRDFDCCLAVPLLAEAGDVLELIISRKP
Experiment: holdup assay
Parameters: key: below the threshold = too weak to quantify, mostly under pKd 3.1 to 4
Details: plain residues with an end cap or a label only (N-terminal biotin on a linker: ado-ado)

Binder | pKd
GQSVDLVFPV [AKIP1, Q9NQ31] | 4.08
DQPLEKSTKL [AKAP10, O43572] | below the threshold

Molecular target: Inadl_8, Q8NI35
Sequence (Q8NI35 1425-1530): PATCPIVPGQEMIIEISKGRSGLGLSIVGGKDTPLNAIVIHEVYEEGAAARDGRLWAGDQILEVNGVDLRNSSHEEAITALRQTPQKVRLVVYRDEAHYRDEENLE
Experiment: holdup assay
Parameters: key: below the threshold = too weak to quantify, mostly under pKd 3.1 to 4
Details: plain residues with an end cap or a label only (N-terminal biotin on a linker: ado-ado)

Binder | pKd
GQSVDLVFPV [AKIP1, Q9NQ31] | below the threshold
DQPLEKSTKL [AKAP10, O43572] | below the threshold

Molecular target: Inadl_9, Q8NI35
Sequence (Q8NI35 1530-1615): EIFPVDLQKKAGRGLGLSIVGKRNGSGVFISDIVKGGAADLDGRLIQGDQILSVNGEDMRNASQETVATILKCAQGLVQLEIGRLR
Experiment: holdup assay
Parameters: key: below the threshold = too weak to quantify, mostly under pKd 3.1 to 4
Details: plain residues with an end cap or a label only (N-terminal biotin on a linker: ado-ado)

Binder | pKd
GQSVDLVFPV [AKIP1, Q9NQ31] | 3.5
DQPLEKSTKL [AKAP10, O43572] | below the threshold

Molecular target: MAGI1_1, Q96QZ7
Sequence (Q96QZ7 1-106): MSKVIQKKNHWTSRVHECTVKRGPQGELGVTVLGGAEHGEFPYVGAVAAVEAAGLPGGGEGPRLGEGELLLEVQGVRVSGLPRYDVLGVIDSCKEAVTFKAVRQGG
Experiment: holdup assay
Parameters: key: below the threshold = too weak to quantify, mostly under pKd 3.1 to 4
Details: plain residues with an end cap or a label only (N-terminal biotin on a linker: ado-ado)

Binder | pKd
GQSVDLVFPV [AKIP1, Q9NQ31] | below the threshold
DQPLEKSTKL [AKAP10, O43572] | below the threshold

Molecular target: T6, MPDZ_5, O75970
T6 sequence (O75970 695-796, limits assumed, looked up): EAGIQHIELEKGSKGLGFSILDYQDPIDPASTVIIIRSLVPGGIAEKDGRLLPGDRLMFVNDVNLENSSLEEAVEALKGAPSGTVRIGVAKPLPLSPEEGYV
Experiment: holdup assay
Parameters: key: below the threshold = too weak to quantify, mostly under pKd 3.1 to 4
Details: plain residues with an end cap or a label only (N-terminal biotin on a linker: ado-ado)

Binder | pKd
GQSVDLVFPV [AKIP1, Q9NQ31] | below the threshold
DQPLEKSTKL [AKAP10, O43572] | below the threshold

Molecular target: T7, NHERF3_1, Q5T2W1
T7 sequence (Q5T2W1 4-100, limits assumed, looked up): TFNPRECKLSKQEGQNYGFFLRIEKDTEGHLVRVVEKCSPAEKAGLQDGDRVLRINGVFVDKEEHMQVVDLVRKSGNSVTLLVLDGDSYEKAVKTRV
Experiment: holdup assay
Parameters: key: below the threshold = too weak to quantify, mostly under pKd 3.1 to 4
Details: plain residues with an end cap or a label only (N-terminal biotin on a linker: ado-ado)

Binder | pKd
GQSVDLVFPV [AKIP1, Q9NQ31] | below the threshold
DQPLEKSTKL [AKAP10, O43572] | 6.02

Molecular target: PARD3_3, Q8TEW0
Sequence (Q8TEW0 582-685): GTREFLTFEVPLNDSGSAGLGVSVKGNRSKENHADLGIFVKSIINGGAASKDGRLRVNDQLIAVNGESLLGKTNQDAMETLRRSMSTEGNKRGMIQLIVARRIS
Experiment: holdup assay
Parameters: key: below the threshold = too weak to quantify, mostly under pKd 3.1 to 4
Details: plain residues with an end cap or a label only (N-terminal biotin on a linker: ado-ado)

Binder | pKd
GQSVDLVFPV [AKIP1, Q9NQ31] | 3.66
DQPLEKSTKL [AKAP10, O43572] | below the threshold

Molecular target: T8, SHANK1, Q9Y566
T8 sequence (Q9Y566 658-767, limits assumed, looked up): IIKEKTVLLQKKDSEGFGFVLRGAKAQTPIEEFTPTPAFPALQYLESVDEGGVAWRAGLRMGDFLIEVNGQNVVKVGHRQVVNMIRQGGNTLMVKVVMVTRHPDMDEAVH
Experiment: holdup assay
Parameters: key: below the threshold = too weak to quantify, mostly under pKd 3.1 to 4
Details: plain residues with an end cap or a label only (N-terminal biotin on a linker: ado-ado)

Binder | pKd
GQSVDLVFPV [AKIP1, Q9NQ31] | below the threshold
DQPLEKSTKL [AKAP10, O43572] | 5.33

Molecular target: T9, SNTB1, Q13884
T9 sequence (Q13884 107-205, limits assumed, looked up): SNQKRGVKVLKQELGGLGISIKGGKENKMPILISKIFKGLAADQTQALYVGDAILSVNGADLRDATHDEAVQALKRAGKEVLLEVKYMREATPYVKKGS
Experiment: holdup assay
Parameters: key: below the threshold = too weak to quantify, mostly under pKd 3.1 to 4
Details: plain residues with an end cap or a label only (N-terminal biotin on a linker: ado-ado)

Binder | pKd
GQSVDLVFPV [AKIP1, Q9NQ31] | below the threshold
DQPLEKSTKL [AKAP10, O43572] | 3.99

Molecular target: T10, SNTG1, Q9NSN8
T10 sequence (Q9NSN8 52-150, limits assumed, looked up): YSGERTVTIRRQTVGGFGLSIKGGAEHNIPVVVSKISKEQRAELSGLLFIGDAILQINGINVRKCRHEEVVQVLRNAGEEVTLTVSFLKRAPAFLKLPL
Experiment: holdup assay
Parameters: key: below the threshold = too weak to quantify, mostly under pKd 3.1 to 4
Details: plain residues with an end cap or a label only (N-terminal biotin on a linker: ado-ado)

Binder | pKd
GQSVDLVFPV [AKIP1, Q9NQ31] | below the threshold
DQPLEKSTKL [AKAP10, O43572] | below the threshold

Molecular target: T11, SNTG2, Q9NY99
T11 sequence (Q9NY99 68-166, limits assumed, looked up): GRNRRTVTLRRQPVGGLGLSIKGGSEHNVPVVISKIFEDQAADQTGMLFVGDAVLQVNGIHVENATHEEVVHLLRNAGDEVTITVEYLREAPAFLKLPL
Experiment: holdup assay
Parameters: key: below the threshold = too weak to quantify, mostly under pKd 3.1 to 4
Details: plain residues with an end cap or a label only (N-terminal biotin on a linker: ado-ado)

Binder | pKd
GQSVDLVFPV [AKIP1, Q9NQ31] | below the threshold
DQPLEKSTKL [AKAP10, O43572] | 3.64

Molecular target: T12, TJP3_3, O95049
T12 sequence (O95049 375-456, limits assumed, looked up): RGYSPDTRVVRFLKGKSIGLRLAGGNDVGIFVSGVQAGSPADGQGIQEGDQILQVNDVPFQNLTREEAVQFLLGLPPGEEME
Experiment: holdup assay
Parameters: key: below the threshold = too weak to quantify, mostly under pKd 3.1 to 4
Details: plain residues with an end cap or a label only (N-terminal biotin on a linker: ado-ado)

Binder | pKd
GQSVDLVFPV [AKIP1, Q9NQ31] | below the threshold
DQPLEKSTKL [AKAP10, O43572] | below the threshold
